Like-named read-outs stand apart in the source and are kept apart here.
T1: GST–Ykt6p (amino acids 1–195) (S. cerevisiae, UniProt P36015 1-195)
T1 sequence: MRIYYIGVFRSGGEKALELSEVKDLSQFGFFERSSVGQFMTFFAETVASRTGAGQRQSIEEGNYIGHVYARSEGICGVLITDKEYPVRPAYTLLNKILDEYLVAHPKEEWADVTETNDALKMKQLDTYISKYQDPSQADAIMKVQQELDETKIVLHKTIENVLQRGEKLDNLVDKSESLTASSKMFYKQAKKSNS

T2: heterodimeric GST–Sed5p–His10-Sly1p complex bound to beads (S. cerevisiae, UniProt Q01590;P22213)
T2 sequence 1: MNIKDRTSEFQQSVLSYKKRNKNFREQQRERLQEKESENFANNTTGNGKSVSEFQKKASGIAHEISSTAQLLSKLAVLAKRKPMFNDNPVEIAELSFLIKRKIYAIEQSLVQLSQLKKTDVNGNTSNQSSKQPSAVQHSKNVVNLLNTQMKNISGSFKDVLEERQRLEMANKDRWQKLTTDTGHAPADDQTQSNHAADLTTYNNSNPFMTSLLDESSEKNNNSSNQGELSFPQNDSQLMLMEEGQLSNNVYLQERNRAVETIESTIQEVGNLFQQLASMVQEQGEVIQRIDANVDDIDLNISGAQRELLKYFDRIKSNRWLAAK
T2 sequence 2: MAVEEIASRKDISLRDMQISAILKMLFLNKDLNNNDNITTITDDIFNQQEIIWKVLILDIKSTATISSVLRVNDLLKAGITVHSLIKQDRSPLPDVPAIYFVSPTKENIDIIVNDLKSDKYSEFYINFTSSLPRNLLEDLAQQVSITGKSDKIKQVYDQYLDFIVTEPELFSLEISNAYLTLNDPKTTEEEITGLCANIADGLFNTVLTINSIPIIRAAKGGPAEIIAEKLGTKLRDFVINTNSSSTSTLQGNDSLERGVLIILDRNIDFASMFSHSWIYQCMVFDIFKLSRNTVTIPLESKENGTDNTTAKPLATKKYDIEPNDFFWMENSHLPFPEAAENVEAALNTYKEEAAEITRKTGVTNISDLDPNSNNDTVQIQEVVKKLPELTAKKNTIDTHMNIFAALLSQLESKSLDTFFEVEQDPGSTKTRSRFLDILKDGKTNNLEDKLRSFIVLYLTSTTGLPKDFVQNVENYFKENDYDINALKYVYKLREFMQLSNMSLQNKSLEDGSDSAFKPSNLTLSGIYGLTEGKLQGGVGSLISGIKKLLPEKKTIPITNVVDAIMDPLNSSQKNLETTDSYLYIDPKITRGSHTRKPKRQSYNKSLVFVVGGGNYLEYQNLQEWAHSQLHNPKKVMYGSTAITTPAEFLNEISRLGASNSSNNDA

T3: GST–Sec22p (yeast, UniProt P22214)
T3 sequence: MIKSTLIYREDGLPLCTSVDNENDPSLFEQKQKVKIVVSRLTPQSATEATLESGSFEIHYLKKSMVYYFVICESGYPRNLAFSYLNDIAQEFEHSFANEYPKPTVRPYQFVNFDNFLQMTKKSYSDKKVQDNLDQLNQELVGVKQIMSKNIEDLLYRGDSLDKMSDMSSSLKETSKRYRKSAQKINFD

T4: Sly1p cleaved from purified GST–Sly1p (untagged soluble Sly1p) (S. cerevisiae, UniProt P22213 1-666)
T4 sequence: T2 sequence 2

T5: preassembled SNARE complex of GST–Sec22p, Sed5p, Bos1p and Bet1p (yeast, UniProt P22214;Q01590;P25385;P22804)
T5 sequence 1: T3 sequence
T5 sequence 2: T2 sequence 1
T5 sequence 3: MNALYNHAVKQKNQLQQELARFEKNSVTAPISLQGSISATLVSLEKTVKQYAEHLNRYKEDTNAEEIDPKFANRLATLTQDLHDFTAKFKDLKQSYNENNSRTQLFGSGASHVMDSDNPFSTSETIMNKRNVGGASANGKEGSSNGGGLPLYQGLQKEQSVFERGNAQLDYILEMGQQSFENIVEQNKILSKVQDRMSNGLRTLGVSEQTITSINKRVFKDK
T5 sequence 4: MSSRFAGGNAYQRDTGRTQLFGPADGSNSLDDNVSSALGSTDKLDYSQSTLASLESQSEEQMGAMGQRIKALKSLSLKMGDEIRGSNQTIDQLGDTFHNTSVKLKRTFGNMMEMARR

B1: His6-Sec22p (amino acids 1–188) (domain or fragment)
chain: T3 sequence
B2: His6-Bos1p lacking the transmembrane (TM) (domain or fragment)
chain: T5 sequence 3
B3: His6-Sed5p (NH2-terminally His6-tagged Sed5p lacking the COOH-terminal membrane anchor) (domain or fragment)
chain: T2 sequence 1
B4: GST–Sed5p (entire cytosolic region) (domain or fragment)
chain: T2 sequence 1
B5: GST–Sed5N (NH2-terminal domain) (domain or fragment)
chain: MNIKDRTSEFQQSVLSYKKRNKNFREQQRERLQEKESENFANNTTGNGKSVSEFQKKASGIAHEISSTAQLLSKLAVLAKRKPMFNDNPVEIAELSFLIKRKIYAIEQSLVQLSQLKKTDVNGNTSNQSSKQPSAVQHSKNVVNLLNTQMKNISGSFKDVLEERQRLEMANKDRWQKLTTDTGHAPADDQTQSNHAADLTTYNNSNPFMTSLLDESSEKNNNSSNQGELSFPQNDSQLMLMEEGQLSNNV
B6: His6-Sec17p (full length) (natural protein)
chain: MSDPVELLKRAEKKGVPSSGFMKLFSGSDSYKFEEAADLCVQAATIYRLRKELNLAGDSFLKAADYQKKAGNEDEAGNTYVEAYKCFKSGGNSVNAVDSLENAIQIFTHRGQFRRGANFKFELGEILENDLHDYAKAIDCYELAGEWYAQDQSVALSNKCFIKCADLKALDGQYIEASDIYSKLIKSSMGNRLSQWSLKDYFLKKGLCQLAATDAVAAARTLQEGQSEDPNFADSRESNFLKSLIDAVNEGDSEQLSEHCKEFDNFMRLDKWKITILNKIKESIQQQEDDLL
B7: His6-Bet1p lacking the COOH-terminal membrane anchor (domain or fragment)
chain: T5 sequence 4
B8: His10-Sly1p (NH2-terminally His10-tagged full-length Sly1p) (natural protein)
chain: T2 sequence 2
B9: preformed Sed5p–Sly1p heterodimer in solution (His-Sly1p–His-Sed5p) (complex)
chain 1: T2 sequence 2
chain 2: T2 sequence 1

Assays:
Assay in all cases: pull-down
[1] = target: T1, GST–Ykt6p (amino acids 1–195)
[2] = target: B4
[3] = target: T2, heterodimeric GST–Sed5p–His10-Sly1p …
GST–Sec22p [4] = target: T3, GST–Sec22p
GST–Sec22p [5] = target: T3, GST–Sec22p; remark: listed apart in the source
GST–Sec22p [6] = target: T3, GST–Sec22p; remark: listed apart in the source
GST–Sec22p [7] = target: T3, GST–Sec22p; remark: listed apart in the source
[8] = target: B8
[9] = target: T4, Sly1p cleaved from purified GST–Sly1p …
[10] = target: T5, preassembled SNARE complex of …
[11] = target: preassembled SNARE complex of GST–Sec22p, Sed5p, Bos1p and Bet1p with Sly1p (yeast | S. cerevisiae, UniProt P22214;Q01590;P25385;P22804;P22213)

Binder: B1
- binding result [1]: binds
- stoichiometry N [2]: 1.3 per Sed5p
- stoichiometry N [3]: 1.4 per Sed5p

Binder: B2
- stoichiometry of Sly1p–Sed5p–Bos1p–Sec22p–Bet1p in the isolated complex (GST–Sec22p [4]): 0.8 molar ratio (GST–Sec22p = 1.4)
- stoichiometry N [2]: 1.3 per Sed5p
- stoichiometry N [3]: 1.4 per Sed5p

Binder: B3
- stoichiometry N (GST–Sec22p [5]): 0.3 Sed5p per Sec22p
- stoichiometry of Sly1p–Sed5p–Bos1p–Sec22p–Bet1p in the isolated complex (GST–Sec22p [4]): 1.2 molar ratio (GST–Sec22p = 1.4)
- stoichiometry N (GST–Sec22p [6]): 1.1 Sed5p per Sec22p
- stoichiometry N (GST–Sec22p [7]): 0.5 Sed5p per Sec22p

Binder: B4
- binding result [8]: binds

Binder: B5
- binding result [9]: binds

Binder: B6
- stoichiometry N [10]: 3.3 Sec17p per Sed5p
- stoichiometry N [11]: 2.7 Sec17p per Sed5p

Binder: B7
- stoichiometry of Sly1p–Sed5p–Bos1p–Sec22p–Bet1p in the isolated complex (GST–Sec22p [4]): 1.3 molar ratio (GST–Sec22p = 1.4)
- stoichiometry N [2]: 1.5 per Sed5p
- stoichiometry N [3]: 1.3 per Sed5p

Binder: B8
- stoichiometry of Sly1p–Sed5p–Bos1p–Sec22p–Bet1p in the isolated complex [10]: 1 molar ratio (GST–Sec22p = 1.4)
- stoichiometry N [2]: 1.2 per Sed5p

Binder: B9
- stoichiometry N (GST–Sec22p [5]): 0.3 Sed5p per Sec22p
- stoichiometry N (GST–Sec22p [6]): 0.99 Sed5p per Sec22p
- stoichiometry N (GST–Sec22p [7]): 0.44 Sed5p per Sec22p

From publication PMC2173853 (The Journal of Cell Biology, 2002)
